Test results taken from doi:10.1101/2023.12.22.573140.
pKd: −log10 of the molar value.

Columns and labels:
Test in all cases: ITC
[1] = target: TGF-β mimic 6 (TGM6), full-length (Heligmosomoides polygyrus)
[2] = target: TGM6 domain 3 (TGM6-D3) (Heligmosomoides polygyrus)
[3] = target: TGF-β type II receptor (TβRII) (UniProt P37173)

Substance | fold decrease in binding affinity against wild type [3] [fold] | further results
TGF-β type II receptor (TβRII) (from UniProt P37173 46-155) |  | pKd [1]: 6.66; pKd [2]: 6.36
TGM1-D3 S242R (domain or fragment) |  | fold gain of binding affinity against wild type [3]: 4 fold
TGM6-D3 I78A (domain or fragment) | 15.4 | 
TGM6-D3 R38A (domain or fragment) | 22 | 
TGM6-D3 R82A (domain or fragment) | 11 to 12 | 
TGM6-D3 R82S (domain or fragment) |  | fold loss of binding affinity against wild type [3]: 7.4 fold
TGM6-D3 R95A (domain or fragment) | 11.6 | 
TGM6-D3 Y80A (domain or fragment) | 134 | 
TGM6-D3 Y80F (domain or fragment) | 3.5 | 
TGM6-D3 Y93A (domain or fragment) | 108 | 
